The values below come from paper PMC7374751.

In assay [1] the target is low-density lipoprotein receptor-related protein 1 (LRP-1) (UniProt Q07954). Put plainly: SPR; BIAcore T200; LRP-1 immobilised on a CM5 chip by amine coupling (3000 RU); 25 °C; 150 mM NaCl, 10 mM CaCl2, 50 mM Tris-HCl, 0.01% Tween-20, pH 7.5; 30 μl/min; ligands or pre-formed complexes injected; one-site binding model; triplicate. A general note: In SPR one partner is held on a chip, and binding of the other changes the refractive index at the surface.

Assay [2] has the same target.
In another assay the target is TIMP-1 (Homo sapiens) (UniProt P01033). Particulars: cited from earlier work.
A further assay deals with TIMP-2 (Homo sapiens) (UniProt P16035). The settings on record: cited from earlier work.
A further assay deals with TIMP-3 (Homo sapiens) (UniProt P35625). Particulars: cited from earlier work.
For a further assay, the target named is LRP-1 (Homo sapiens) (UniProt Q07954). Particulars: cited from earlier work.
Chain of LRP-1 (Homo sapiens) (Q07954 20-4544): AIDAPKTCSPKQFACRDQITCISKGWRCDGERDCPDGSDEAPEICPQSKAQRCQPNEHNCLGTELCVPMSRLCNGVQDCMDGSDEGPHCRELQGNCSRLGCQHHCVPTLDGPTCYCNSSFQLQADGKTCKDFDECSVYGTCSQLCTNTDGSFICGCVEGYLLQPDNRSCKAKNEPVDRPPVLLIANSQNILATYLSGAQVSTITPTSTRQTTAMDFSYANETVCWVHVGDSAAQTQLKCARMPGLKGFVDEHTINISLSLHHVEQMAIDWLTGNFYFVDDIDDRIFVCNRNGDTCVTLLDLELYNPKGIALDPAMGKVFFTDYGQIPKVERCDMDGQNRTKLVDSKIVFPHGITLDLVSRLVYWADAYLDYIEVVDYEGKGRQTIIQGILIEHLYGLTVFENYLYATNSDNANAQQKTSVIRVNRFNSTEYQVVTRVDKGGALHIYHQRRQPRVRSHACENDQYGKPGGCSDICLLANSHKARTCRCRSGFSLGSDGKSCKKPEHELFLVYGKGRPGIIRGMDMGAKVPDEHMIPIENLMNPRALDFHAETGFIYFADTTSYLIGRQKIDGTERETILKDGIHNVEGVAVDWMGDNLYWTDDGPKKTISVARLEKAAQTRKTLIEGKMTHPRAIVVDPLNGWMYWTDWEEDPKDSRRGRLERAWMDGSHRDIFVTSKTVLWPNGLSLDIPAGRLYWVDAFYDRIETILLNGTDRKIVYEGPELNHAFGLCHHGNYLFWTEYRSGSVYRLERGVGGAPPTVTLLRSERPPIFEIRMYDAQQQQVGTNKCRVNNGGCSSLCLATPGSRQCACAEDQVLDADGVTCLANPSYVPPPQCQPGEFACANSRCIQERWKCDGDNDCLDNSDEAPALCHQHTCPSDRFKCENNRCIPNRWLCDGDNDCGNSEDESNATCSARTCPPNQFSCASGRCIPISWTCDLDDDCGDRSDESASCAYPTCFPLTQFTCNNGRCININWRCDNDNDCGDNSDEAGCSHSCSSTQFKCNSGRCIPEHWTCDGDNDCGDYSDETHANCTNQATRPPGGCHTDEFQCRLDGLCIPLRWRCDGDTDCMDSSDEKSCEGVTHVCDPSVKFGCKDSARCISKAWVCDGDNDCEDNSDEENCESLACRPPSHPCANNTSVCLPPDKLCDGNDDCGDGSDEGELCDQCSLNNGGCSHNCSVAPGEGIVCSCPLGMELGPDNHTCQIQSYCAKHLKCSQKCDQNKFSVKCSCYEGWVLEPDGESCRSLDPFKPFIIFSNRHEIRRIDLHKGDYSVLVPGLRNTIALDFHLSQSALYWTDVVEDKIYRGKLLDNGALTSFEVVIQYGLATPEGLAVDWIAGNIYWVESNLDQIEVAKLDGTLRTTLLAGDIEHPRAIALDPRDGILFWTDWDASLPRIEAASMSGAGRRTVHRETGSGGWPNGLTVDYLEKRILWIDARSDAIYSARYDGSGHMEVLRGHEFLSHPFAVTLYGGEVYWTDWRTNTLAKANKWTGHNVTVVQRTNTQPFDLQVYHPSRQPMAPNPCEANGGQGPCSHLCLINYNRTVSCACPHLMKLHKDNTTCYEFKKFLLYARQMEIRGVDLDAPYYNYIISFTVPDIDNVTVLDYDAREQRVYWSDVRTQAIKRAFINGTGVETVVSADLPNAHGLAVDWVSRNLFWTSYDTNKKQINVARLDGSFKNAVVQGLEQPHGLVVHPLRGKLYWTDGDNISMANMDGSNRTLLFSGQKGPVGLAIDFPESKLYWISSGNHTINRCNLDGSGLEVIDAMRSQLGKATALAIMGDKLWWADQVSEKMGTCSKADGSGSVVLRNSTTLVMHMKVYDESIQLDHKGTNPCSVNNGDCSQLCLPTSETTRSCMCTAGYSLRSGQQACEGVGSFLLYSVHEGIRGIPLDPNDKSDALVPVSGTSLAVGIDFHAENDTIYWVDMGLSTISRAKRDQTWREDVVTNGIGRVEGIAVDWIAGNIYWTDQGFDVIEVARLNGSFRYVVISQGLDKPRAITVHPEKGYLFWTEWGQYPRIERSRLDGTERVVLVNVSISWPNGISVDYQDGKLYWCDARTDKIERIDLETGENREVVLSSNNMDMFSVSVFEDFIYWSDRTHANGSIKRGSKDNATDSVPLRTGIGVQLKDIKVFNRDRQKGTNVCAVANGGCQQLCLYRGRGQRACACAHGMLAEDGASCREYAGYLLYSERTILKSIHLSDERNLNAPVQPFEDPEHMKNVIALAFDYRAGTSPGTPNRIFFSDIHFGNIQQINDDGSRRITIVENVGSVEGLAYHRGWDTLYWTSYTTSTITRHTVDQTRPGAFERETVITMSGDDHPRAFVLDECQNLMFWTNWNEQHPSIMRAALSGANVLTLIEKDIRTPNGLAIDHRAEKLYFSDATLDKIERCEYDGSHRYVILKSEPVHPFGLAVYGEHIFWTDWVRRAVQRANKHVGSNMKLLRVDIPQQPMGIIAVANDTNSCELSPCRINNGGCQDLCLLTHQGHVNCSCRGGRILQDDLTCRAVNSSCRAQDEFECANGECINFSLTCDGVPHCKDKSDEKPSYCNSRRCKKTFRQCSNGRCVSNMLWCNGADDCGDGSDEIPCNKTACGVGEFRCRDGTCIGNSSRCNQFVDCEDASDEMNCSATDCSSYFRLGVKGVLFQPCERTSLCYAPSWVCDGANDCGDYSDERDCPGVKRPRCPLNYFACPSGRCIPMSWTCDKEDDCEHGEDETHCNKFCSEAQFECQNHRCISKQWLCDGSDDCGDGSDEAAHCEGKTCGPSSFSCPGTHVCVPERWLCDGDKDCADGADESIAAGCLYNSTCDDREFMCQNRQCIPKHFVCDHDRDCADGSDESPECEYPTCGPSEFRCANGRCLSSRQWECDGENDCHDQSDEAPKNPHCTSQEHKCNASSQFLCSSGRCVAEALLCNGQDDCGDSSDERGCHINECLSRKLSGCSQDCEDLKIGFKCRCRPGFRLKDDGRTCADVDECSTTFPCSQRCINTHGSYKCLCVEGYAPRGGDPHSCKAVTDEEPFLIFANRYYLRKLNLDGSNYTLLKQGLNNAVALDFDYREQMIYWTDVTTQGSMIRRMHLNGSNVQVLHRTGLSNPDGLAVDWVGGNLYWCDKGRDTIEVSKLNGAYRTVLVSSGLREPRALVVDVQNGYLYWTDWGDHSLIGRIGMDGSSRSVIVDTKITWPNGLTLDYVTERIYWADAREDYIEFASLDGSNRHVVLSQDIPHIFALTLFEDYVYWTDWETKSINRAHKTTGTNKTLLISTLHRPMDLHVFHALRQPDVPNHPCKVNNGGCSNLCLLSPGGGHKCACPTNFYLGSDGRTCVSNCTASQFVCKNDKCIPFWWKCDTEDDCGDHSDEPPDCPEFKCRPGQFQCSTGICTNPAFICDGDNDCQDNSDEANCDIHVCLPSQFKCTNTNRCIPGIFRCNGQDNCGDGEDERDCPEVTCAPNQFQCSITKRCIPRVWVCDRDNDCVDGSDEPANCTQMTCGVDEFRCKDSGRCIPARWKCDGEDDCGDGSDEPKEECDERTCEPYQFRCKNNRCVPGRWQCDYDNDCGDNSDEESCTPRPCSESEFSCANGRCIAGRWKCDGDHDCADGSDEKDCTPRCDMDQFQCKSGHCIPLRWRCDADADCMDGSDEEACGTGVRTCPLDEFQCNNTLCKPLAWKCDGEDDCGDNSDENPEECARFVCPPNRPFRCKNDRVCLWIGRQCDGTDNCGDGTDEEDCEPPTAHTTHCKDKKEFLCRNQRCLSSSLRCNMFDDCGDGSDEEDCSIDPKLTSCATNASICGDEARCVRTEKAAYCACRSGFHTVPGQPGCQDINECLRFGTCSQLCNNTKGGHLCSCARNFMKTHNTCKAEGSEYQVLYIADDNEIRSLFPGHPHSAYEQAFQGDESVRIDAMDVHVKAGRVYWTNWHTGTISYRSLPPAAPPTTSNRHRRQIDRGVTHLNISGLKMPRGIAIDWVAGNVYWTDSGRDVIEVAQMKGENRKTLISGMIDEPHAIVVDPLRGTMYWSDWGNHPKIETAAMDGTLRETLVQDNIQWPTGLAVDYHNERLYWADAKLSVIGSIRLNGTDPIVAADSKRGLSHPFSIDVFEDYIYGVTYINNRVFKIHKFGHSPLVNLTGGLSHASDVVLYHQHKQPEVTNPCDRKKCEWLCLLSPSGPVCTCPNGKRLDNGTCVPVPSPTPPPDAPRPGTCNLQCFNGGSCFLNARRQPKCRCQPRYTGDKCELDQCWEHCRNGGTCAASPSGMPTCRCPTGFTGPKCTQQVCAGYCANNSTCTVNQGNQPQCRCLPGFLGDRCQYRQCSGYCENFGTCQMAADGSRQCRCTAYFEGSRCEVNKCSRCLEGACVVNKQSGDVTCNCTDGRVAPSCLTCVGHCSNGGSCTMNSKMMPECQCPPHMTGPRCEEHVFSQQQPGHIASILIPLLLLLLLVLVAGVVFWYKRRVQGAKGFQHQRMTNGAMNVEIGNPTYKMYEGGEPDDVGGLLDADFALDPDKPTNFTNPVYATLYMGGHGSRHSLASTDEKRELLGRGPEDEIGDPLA

Chain of MMP-1 (P03956 100-469): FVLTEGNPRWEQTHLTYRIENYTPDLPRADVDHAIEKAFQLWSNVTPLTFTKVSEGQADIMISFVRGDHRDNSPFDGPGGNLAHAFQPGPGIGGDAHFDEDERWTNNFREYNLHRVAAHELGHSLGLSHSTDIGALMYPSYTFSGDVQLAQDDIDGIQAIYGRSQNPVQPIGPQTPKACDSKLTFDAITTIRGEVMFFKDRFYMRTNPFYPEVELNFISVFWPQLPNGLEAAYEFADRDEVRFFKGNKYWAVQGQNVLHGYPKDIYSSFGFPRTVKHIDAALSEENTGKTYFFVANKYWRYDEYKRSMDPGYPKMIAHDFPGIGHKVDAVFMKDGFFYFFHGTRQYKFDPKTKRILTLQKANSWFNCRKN
Chain of low-density lipoprotein receptor-related protein 1 (LRP-1) (Q07954 20-4544): as the sequence (Q07954 20-4544) above

In assay [1], “MMP-13/TIMP-2 complex (from UniProt P45452 20-471; P16035 27-220)” came in with an equilibrium dissociation constant (Kd) of 5.59 nM, a koff of 0.00241 s⁻¹ and an on-rate constant (kon) of 431000 M⁻¹ s⁻¹.

In assay [1], “MMP-1/TIMP-2 complex (from UniProt P16035 27-220)” returned a dissociation constant Kd of 7.8 nM, a koff of 0.00327 s⁻¹ and a kon of 419000 M⁻¹ s⁻¹.

In assay [1], “MMP-1/TIMP-3 complex (from UniProt P35625 24-211)” came in with an equilibrium dissociation constant (Kd) of 4.96 nM, a koff of 0.00228 s⁻¹ and a kon of 461000 M⁻¹ s⁻¹.

For full length MMP-1 (enzyme), the decrease in clearance of 10 nM intact [35S]MMP-1 from the conditioned medium of HTB94 cells, 0-24 h in assay [2] was 20%.

As for “MMP-13/TIMP-1 complex (from UniProt P45452 20-471; P01033 24-207)”, in assay [1], the Kd came out at 10.6 nM, the koff came to 0.00345 s⁻¹ and the on-rate constant (kon) stood at 326000 M⁻¹ s⁻¹.

In assay [1], “MMP-1 (E200A), catalytically inactive form of MMP-1 (enzyme)” showed a dissociation constant (Kd) of 34.6 nM, an off-rate constant (koff) of 0.00468 s⁻¹ and a kon of 136000 M⁻¹ s⁻¹.

For “MMP-13 (E204A), catalytically inactive mutant (enzyme)”, in assay [1], the Kd was 25.6 nM, the off-rate constant (koff) is 0.00598 s⁻¹ and the on-rate constant (kon) came to 234000 M⁻¹ s⁻¹.

As to MMP-1 (from UniProt P03956), the figures for the inhibitory constant (Ki) with TIMP-1 (Homo sapiens), in the assay with TIMP-2 (Homo sapiens) and with TIMP-3 (Homo sapiens) were 0.38 nM, 1.03 nM and 1.1 nM, respectively.

In assay [1], “MMP-13/TIMP-3 complex (from UniProt P45452 20-471; P35625 24-211)” gave an equilibrium dissociation constant (Kd) of 3.35 nM, a koff of 0.00295 s⁻¹ and an on-rate (kon) of 882000 M⁻¹ s⁻¹.

RAP (from UniProt P30533): the Kd with LRP-1 (Homo sapiens) was 1.4 nM.

In assay [1], “MMP-1/TIMP-1 complex (from UniProt P01033 24-207)” yielded a dissociation constant Kd of 16.5 nM, a koff of 0.0064 s⁻¹ and a kon of 390000 M⁻¹ s⁻¹.

MMP-1/N-TIMP-3 complex: in assay [1], the Kd stood at 4.3 nM, the dissociation rate constant (koff) worked out at 0.00246 s⁻¹ and the on-rate (kon) came out at 573000 M⁻¹ s⁻¹.

As a reminder, the Kd is the concentration at which binding is half-saturated. The term koff denotes the first-order rate constant of dissociation. A low value points to a long-lived complex. Usually kon stands for the rate constant with which the complex forms. A word on the Ki: it is the dissociation constant of the complex between target and ligand, obtained from inhibition or displacement.
